From US20240175001A1

Biological target: SNAP-25 (rat) (UniProt P60881)
Assay: cell-based or functional assay

Sequence of UniProt P60881 (P60881 whole entry): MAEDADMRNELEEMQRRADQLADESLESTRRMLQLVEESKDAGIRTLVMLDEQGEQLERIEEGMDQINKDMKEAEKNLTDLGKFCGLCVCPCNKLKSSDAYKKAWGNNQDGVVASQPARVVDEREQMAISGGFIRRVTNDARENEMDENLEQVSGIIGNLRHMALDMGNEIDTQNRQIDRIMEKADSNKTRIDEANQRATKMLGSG

## native BoNT/A1 (LIST)
  pEC50 (percentage SNAP-25 cleavage in rat eSCN, 24 h, Western blot): 12.3
